# Laboratory results published in patent US20030059769, “High affinity nucleic acid ligands to lectins” (published 2003).
# T1: L-selectin (LS-Rg) (Homo sapiens, UniProt P14151 P14151:39-332)
# T1 sequence: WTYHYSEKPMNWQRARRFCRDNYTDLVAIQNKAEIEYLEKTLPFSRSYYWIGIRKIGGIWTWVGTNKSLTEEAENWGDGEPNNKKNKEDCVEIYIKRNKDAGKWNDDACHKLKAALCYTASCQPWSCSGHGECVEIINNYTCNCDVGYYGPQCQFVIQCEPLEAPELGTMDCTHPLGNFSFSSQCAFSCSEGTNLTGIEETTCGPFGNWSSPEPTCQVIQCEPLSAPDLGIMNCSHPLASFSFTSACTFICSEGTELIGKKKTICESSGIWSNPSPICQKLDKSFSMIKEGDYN
# B1: PF377M4 (ssRNA)
# RNA: CUCAACGAGCCAGGAACAUCGACGUCAGCAAACGCGAG
# modifications: 2'-F C and U; 2'-OMe G 7,9,13,14,21,24,28,36 and A 8,15,18,22,27,30,31,37 as listed
# B2: LF1518 (ssRNA)
# RNA: GGGAGGACGAUGCGGGCAAAUUGCAUGCGUUUUCGAGUGCUUGCUCAGACGACUCGCCCGA
# modifications: 2'-F on all C and U
# B3: LF1508 (ssRNA)
# RNA: GGGAGGACGAUGCGGGACCCUUAGGCAACGUGUUUUCAAGUUGGUCAGACGACUCGCCCGA
# modifications: 2'-F on all C and U
# B4: LF1615 (ssRNA)
# RNA: GGGAGGACGAUGCGGCGUAACUUCAGCGGUGUGUUAAUCAAGCCUUACGCCAUCUCAGACGACUCGCCCGA
# modifications: 2'-F on all C and U
# B5: LF1613 (ssRNA)
# RNA: GGGAGGACGAUGCGGUGCUAUUCUUAAGCGGCGUGUUUUUCAAGCCAAUAUCAUCAGACGACUCGCCCGA
# modifications: 2'-F on all C and U
# B6: LF1523 (ssRNA)
# RNA: GGGAGGACGAUGCGGUUCUUAAGCAGCGCGUCAAUCGAGCUAACCCAGACGACUCGCCCGA
# modifications: 2'-F on all C and U
# B7: LF1811 (ssRNA)
# RNA: GGGAGGACGAUGCGGUAAUCUCUUAGGCAUCGCGUUAAUCGAGAUAGAUCACCGUCAGACGACUCGCCCGA
# modifications: 2'-F on all C and U
# B8: LF1513 (ssRNA)
# RNA: GGGAGGACGAUGCGGGCUCUUCAGCAACGUGUUAUCAAGUUAGCCCAGACGACUCGCCCGA
# modifications: 2'-F on all C and U
# B9: LF1610 (ssRNA)
# RNA: GGGAGGACGAUGCGGAGGGUCUUAAGCAGUGUGAUAAUCAAACUACUCUCCGUGUCAGACGACUCGCCCGA
# modifications: 2'-F on all C and U
# B10: LF1514 (ssRNA)
# RNA: GGGAGGACGAUGCGGUACCUCAAAUUGCGUGUUUUCAAGCAGUAUCAGACGACUCGCCCGA
# modifications: 2'-F on all C and U
# B11: LF1807 (ssRNA)
# RNA: GGGAGGACGAUGCGGAGUCUUAGGCAGCGCGUUUUCGAGCUACUCCAUCGCCAGUCAGACGACUCGCCCGA
# modifications: 2'-F on all C and U
# B12: PF404 (ssRNA)
# RNA: GGGAGACAAGAAUAAACGCUCAAUCAGCAGUAAGCGAUCCUAUAAAGAUCAACUAGCCAAAGAUGACUUAUUCGACAGGAGGCUCACAACAGGC
# modifications: 2'-F C and U
# B13: PF417 (ssRNA)
# RNA: GGGAGACAAGAAUAAACGCUCAAAAAGACGUAUUCGAUUCGAAACGAGAAAGACUUCAAGUGAGCCCGCAGUUCGACAGGAGGCUCACAACAGGC
# modifications: 2'-F C and U
# B14: PF388 (ssRNA)
# RNA: GGGAGACAAGAAUAAACGCUCAACUGGCAACGGGAUAACAACAAAUGUCACCAGCACUAGCGAGACGGAAGGUUCGACAGGAGGCUCACAACAGGC
# modifications: 2'-F C and U
# B15: PF398 (ssRNA)
# RNA: GGGAGACAAGAAUAAACGCUCAACGAACCACGGGGAAAUCCACCAGUAACACGCGAGGCAAACAGACCCUCUUCGACAGGAGGCUCACAACAGGC
# modifications: 2'-F C and U
# B16: PF387 (ssRNA)
# RNA: GGGAGACAAGAAUAAACGCUCAACGCACCAGGAACAACGAGAACCAUCAGUAAACGCGAGCGAUUGCAUGUUCGACAGGAGGCUCACAACAGGC
# modifications: 2'-F C and U
# B17: PF416 (ssRNA)
# RNA: GGGAGACAAGAAUAAACGCUCAACAGUUCACUCAACCGGCACCAGACUACGAUCAGCAUUGGCGAGUGAACACUUCGACAGGAGGCUCACAACAGGC
# modifications: 2'-F C and U
# B18: PF386 (ssRNA)
# RNA: GGGAGACAAGAAUAAACGCUCAAACAAGAGAGUCAAACCAAGUGAGAUCAGAGCGUUUAGCGCGGAAAGCACAUUCGACAGGAGGCUCACAACAGGC
# modifications: 2'-F C and U
# B19: PF380 (ssRNA)
# RNA: GGGAGACAAGAAUAAACGCUCAACGAGCAAAAGUACUCACGGGACCAGGAGAUCAGCAACACGCGAGACGAAAUUCGACAGGAGGCUCACAACAGGC
# modifications: 2'-F on all C and U
# B20: PF412 (ssRNA)
# RNA: GGGAGACAAGAAUAAACGCUCAACGACCACAAUACAAACUCGUAUGGAACACGCGAGCGACAGUGACGCAUUUUCGACAGGAGGCUCACAACAGGC
# modifications: 2'-F on all C and U
# B21: PF395 (ssRNA)
# RNA: GGGAGACAAGAAUAAACGCUCAACGAGCAAGGAACGAAUACAAACCAGGAAACUCAGCAACACGCGAGCAGUAAGAAUUCGACAGGAGGCUCACAACAGGC
# modifications: 2'-F on all C and U
# B22: PF373 (ssRNA)
# RNA: GGGAGACAAGAAUAAACGCUCAACGAAUCAGUAAACAUAACACCAUGAAACAUAAAUAGCACGCGAGACGUCUUCGACAGGAGGCUCACAACAGGC
# modifications: 2'-F on all C and U
# B23: PF411 (ssRNA)
# RNA: GGGAGACAAGAAUAAACGCUCAACAACCCAACCAUCUAGAGCUUCGAACCAUGGUAUACAAGGGAACACAAAAUUCGCGGAGGCUCCAACAGGCGGC
# modifications: 2'-F on all C and U
# B24: PF381 (ssRNA)
# RNA: GGGAGACAAGAAUAAACGCUCAAAGGAUCACACAAACAUCGGUCAAUAAAUAAGUAUUGAUAGCGGGGAUAUUCGACAGGAGGCUCACAACAGGC
# modifications: 2'-F on all C and U
# B25: PF422 (ssRNA)
# RNA: GGGAGACAAGAAUAAACGCUCAACGUCAAGCCAGAAUCCGGAACACGCGAGAAAACAAAUCAACGACCAAUCGAUUCGACAGGAGGCUCACAAAGGC
# modifications: 2'-F on all C and U
# B26: PF396 (ssRNA)
# RNA: GGGAGACAAGAAUAAACGCUCAAGCGGUCAGAAACAAUAGCUGGAUACAUACCGCGCAUCCGCUGGGCGAUAUUCGACAGGAGGCUCACAACAGGC
# modifications: 2'-F on all C and U
# B27: PF378 (ssRNA)
# RNA: GGGAGACAAGAAUAAACGCUCAACGAUGAGCGUGACCGAAGCUAUAAUCAGGUCGAUUCACCAAGCAAUCUUAUUCGACAGGAGGCUCACAACAGGC
# modifications: 2'-F on all C and U
# Target: T2, P-selectin (PS-Rg) (Homo sapiens, UniProt P16109 P16109:42-321)
# T2 sequence (P16109 42-321, one chain of several): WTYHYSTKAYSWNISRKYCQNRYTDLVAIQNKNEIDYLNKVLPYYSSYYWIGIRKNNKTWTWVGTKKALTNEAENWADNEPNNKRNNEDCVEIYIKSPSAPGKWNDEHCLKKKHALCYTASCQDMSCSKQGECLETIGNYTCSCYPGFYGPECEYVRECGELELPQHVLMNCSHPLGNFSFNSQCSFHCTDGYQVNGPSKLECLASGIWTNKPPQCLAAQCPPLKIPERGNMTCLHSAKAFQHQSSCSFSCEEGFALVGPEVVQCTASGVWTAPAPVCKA
# Assay: filter; HSMC
# Details: tags: human IgG1 Fc fusion; chain copies: dimer
row,Binder,Kd
1,"CUCAACGAGCCAGGAACAUCGACGUCAGCAAACGCGAG (ssRNA, 2'-F on all C and U; 2'-OMe purines at 11 positions) [PF377M6]",0.25 nM

# Same assay, conditions: tags: human IgG Fc fusion; chain copies: 2 (stated dimer)
row,Binder,Kd
1,"CGCUCAACGAGCCAGGAACAUCGACGUCAGCAAACGCGAGCG (ssRNA, 2'-F C and U) [PF377s2]",0.045 nM
2,"CACUCAACCGGCACCAGACUACGAUCAGCAUUGGCGAGUG (ssRNA, 2'-F C and U) [PF416s2]",0.15 nM
3,"CUCAACGAGCCAGGAACAUCGACGUCAGCAAACGCGAG (ssRNA, 2'-F C and U; 2'-OMe G7 G9 G14 G21 A8 A15 A18 A22 A27 A31) [PF377M1]",0.12 nM
4,B1,1.7 nM
5,"CUCAACGAGCCAGGAACAUCGACGUCAGCAAACGCGAG (ssRNA, 2'-F C and U; 2'-OMe G 7,9,14,21,36 and A 8,15,18,22,27,31,37 as listed) [PF377M3]",0.9 nM
6,"CUCAACGAGCCAGGAACAUCGACGUCAGCAAACGCGAG (ssRNA, 2'-F C and U, biotin) [PF377s1B]",0.065 nM

# Same assay, conditions: tags: human IgG Fc fusion; chain copies: 2 (stated dimer); label: fluorescein (inferred)
row,Binder,Kd
1,"CUCAACGAGCCAGGAACAUCGACGUCAGCAAACGCGAG (ssRNA, 2'-F C and U) [PF377s1F]",0.06 nM

# Target: T1, L-selectin (LS-Rg)
# Assay: filter; 37 C, SHMCK-140
# Details: tags: human IgG2 Fc fusion; chain copies: dimer; label: 32P
# Description: As described in SELEX Patent Applications, a nitrocellulose filter partitioning method was used to determine the affinity of RNA ligands for LS-Rg and for other proteins. Filter discs (nitrocellulose/cellulose acetate mixed matrix, 0.45 μm pore size, Millipore) were placed on a vacuum manifold and washed with 3 ml of SHMCK 140 buffer under vacuum. Reaction mixtures, containing ³²P labeled RNA pools and unlabeled LS-Rg, were incubated in SHMCK 140 for 10-20 min at 37° C., and then immediately washed with 3 ml SHMCK 140. The filters were air-dried and counted in a Beckman LS6500 liquid scintillation counter without fluor. Alternatively, binding studies employed 96 well micro-titer manifolds essentially as described in Example 13, paragraph E.
# These calculations assume two ligand binding sites per chimera.
row,Binder,Kd
1,B2,0.42 nM
2,B3,0.5 nM
3,B4,0.32 nM
4,B5,0.034 nM
5,B6,0.25 nM
6,B7,0.19 nM
7,B8,0.16 nM
8,B9,0.53 nM

# Same assay, conditions: tags: human IgG2 Fc fusion; chain copies: dimer; label: 32P; hairpin with 7-nt bulge
row,Binder,Kd
1,B10,0.13 nM
2,B11,0.034 nM

# Target: T2, P-selectin (PS-Rg)
# Assay: filter; HSMC, 37 C
# Details: tags: human IgG Fc fusion; chain copies: 2 (stated dimer)
row,Binder,Kd
1,B12,0.0475 nM
2,B13,0.069 nM
3,B14,0.09 nM
4,B15,0.046 nM
5,B16,0.016 nM
6,B17,0.063 nM
7,B18,0.0455 nM

# Target: T2, P-selectin (PS-Rg)
# Assay: filter; 37 C, HSMC
# Details: tags: human IgG1 Fc fusion; chain copies: dimer; label: 32P
row,Binder,Kd
1,B19,0.0745 nM
2,B20,0.45 nM
3,B21,0.026 nM
4,B22,0.0495 nM
5,B23,0.013 nM
6,B24,0.0165 nM
7,B25,0.172 nM
8,B26,0.024 nM
9,B27,0.0515 nM

# Target: T2, P-selectin (PS-Rg)
# Assay: inhibition; sialyl-LewisX
# Details: tags: human IgG Fc fusion; chain copies: 2 (stated dimer)
# Description: The ability of evolved RNA pools or cloned ligands to inhibit the binding of PS-Rg to sialyl-Lewis^x was tested in competitive ELISA assays (C. Foxall et al., 1992, supra). For these assays, the wells of Corning (25801) 96 well microtiter plates were coated with 100 ng of a sialyl-Lewis^x/BSA conjugate, air dried overnight, washed with 300 μl of PBS(−) and then blocked with 1% BSA in HSMC for 60 min at room temperature. RNA ligands were incubated with PS-Rg in HSMC/1% BSA at room temperature for 15 min. After removal of the blocking solution, 50 μl of PS-Rg (10 nM) or a PS-Rg (10 nM)/RNA ligand mix was added to the coated, blocked wells and incubated at room temperature for 60 minutes. The binding solution was removed, wells were washed with 300 μl of PBS(−) and then probed with HRP conjugated anti-human IgG, at room temperature to quantitate PS-Rg binding. After a 30 minute incubation at room temperature in the dark with OPD peroxidase substrate (Sigma P9187), the extent of PS-Rg binding and percent inhibition was determined from the OD₄₅₀.
row,Binder,IC50
1,"CGCUCAACGAGCCAGGAACAUCGACGUCAGCAAACGCGAGCG (ssRNA, 2'-F C and U) [PF377s2]",4 nM
2,"CACUCAACCGGCACCAGACUACGAUCAGCAUUGGCGAGUG (ssRNA, 2'-F C and U) [PF416s2]",3 nM
3,"CUCAACGAGCCAGGAACAUCGACGUCAGCAAACGCGAG (ssRNA, 2'-F C and U; 2'-OMe G 7,9,14,21,36 and A 8,15,18,22,27,31,37 as listed) [PF377M3]",10 nM
4,"CUCAACGAGCCAGGAACAUCGACGUCAGCAAACGCGAG (ssRNA, 2'-F C and U, biotin) [PF377s1B]",3 nM

# Same assay, conditions: tags: human IgG Fc fusion; chain copies: 2 (stated dimer); label: fluorescein (inferred)
row,Binder,IC50
1,"CUCAACGAGCCAGGAACAUCGACGUCAGCAAACGCGAG (ssRNA, 2'-F C and U) [PF377s1F]",3 nM
